The chains are these.
B1: A-2 (antibody, V domains shown)
VH: EVQLVESGGGLIQPGGSLRLSCAASGFTVSSNYMSWVRQAPGKGLEWVSIIYSGGSTYYADSVKGRFTISRDNSKNTLYLQMNSLRAEDTAVYYCARAPSGEYGDPIYYWGQGTLVTVSS
VL: QSVLTQPPSASASLGASVKLTCTLSSGHSTYTIAWHQQQPEKGPRYLMKLNSDGSHSKGDGIPDRFSGSSSGAERYLTISSLQSEDEADYYCQTWGTGNHWVFGGGTKLTVL
B2: A-14 (antibody, V domains shown)
VH: EVQLVESGGGVVQPGRSLRLSCAASGFTFSTYGMHWVRQAPGKGLEWVAVIWYDGSNKYYADSVKGRFTISRDNSKNTLYLQMNSLRAEDTAVYYCARSVDGDYLEYFQHWGQGTLVTVSS
VL: QPVLTQPRSVSGSPGQSVTISCTGTSSDVGGYNYVSWYQQHPGKAPKLMIYDVSKRPSGVPDRFSGSKSGNTASLTISGLQAEDEADYYCCSYAGGYTNYVFGTGTKLTVL
B3: A-7 (antibody, V domains shown)
VH: EVQLVESGAEVRKPGASVKVSCKASGYTFTFYYIHWVRQAPGQGLEWMGWISPISGATNYAQTFQGRVTMTRDTSITTAYMELSSLTSDDTAVYYCAREKYYDSSGSSDYWGQGTLVTVSS
VL: QPVLTQPPSVSAAPGQNVTIFCSGSSSNIGNNYVSWYQQLPGPAPKLLIYENNKRPSGIPDRFSGSKSGTSATLGITGLQTGDEADYYCGTWESSLSAPRVFGSGTKLTVL
B4: A-5 (antibody, V domains shown)
VH: QVQLVESGGGLIQPGESLRLSCAASEFIVSRNYMSWVRQAPGKGLEWVSVIYSGGNTYYADSVKGRFTISRDNSKNTLYLQMNSLRAEDTAVYYCARDLRGPGCFDFWGQGTTVTVSS
VL: DIQVTQSPSSLSASVGDRVTITCQASQDISNFLNWYQQKPGKAPKLLIYDASNLETGVPSRFSASGSGTEFTFTISSLQPEDIATYYCQQYDNLRVTFGGGTKLEIK
B5: A-13 (antibody, V domains shown)
VH: QVQLVQSGAEVKKPGASVKVSCKASGYTFTDYYMHWVRQAPGQGLEWMGWINPNSGGTNSAQKFQGRVTMTRDTSINTAYMELSRLRSDDTAVYFCARDSHLAMVRGDFEYWGQGTLVTVSS
VL: QSVLTQPASVSGSPGQSITISCTGTSSDVESYNVVSWYQQHPGKAPKLMIYEVSKRPSGVSHRFSGSKSGNTASLTISGLQAEDESDYYCCSYAGNSTWVFGGGTKLTVL
B6: A-10 (antibody, V domains shown)
VH: QVQLVQSGGGVVQPGRSLRLSCAASGFTFSSYGMHWVRQAPGKGLEWVAVISYDGSNKYYTDSVKGRFTISRDNSKNTLYLQMNSLRAEDTAVYYCAKDLPREVYYDILTGYDNPYYYYGMDVWGQGTTVTVSS
VL: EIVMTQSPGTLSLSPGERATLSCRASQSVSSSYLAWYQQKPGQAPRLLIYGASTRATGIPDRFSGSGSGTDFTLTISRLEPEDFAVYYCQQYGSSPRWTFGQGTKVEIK
B7: A-15 (antibody, V domains shown)
VH: QVQLVQSGAEVKKPGASVKVSCKASGYTSSSYYMHWVRQAPGQGPEWMGIINPGGTSTSYAQKFQGRVTMTRDTSTSTVYMELSSLRSEDTAVYYCAIGYCSTTSCRWGDAFDIWGQGTMVTVSS
VL: DIQVTQSPSSLSASVGDRVTITCRASQSISSYLNWYQQKPEKAPNLLIYAASSLQSGVPSRFSGSGSGTDFTLTISSLQPEDFATYYCQQSSTTPPTFGQGTKVEIK
B8: A-4 (antibody, V domains shown)
VH: EVQLVESGGGLIQPGGSLTLSCAASGFTVSSNYMNWVRQAPGKGLEWVSVIYSGGSTYYADSVKGRFTISRDNSKNTLYLQMNSLRAEDTAVYYCAREVYSYFDYWGQGTLVTVSS
VL: DIQLTQSPSFLSASVGDRVTITCRASQGISSYLAWYQQKPGKAPKLLIYAASTLQSGVPSRFSGSGSGTEFTLTISRLQPEDLATYYCQQLNSYPPHTFGQGAKLEIK
B9: A-11 (antibody, V domains shown)
VH: EVQLVESGAEVKKPGSSVMVSCKASGGTFSRYAISWVRQAPGQGLEWMGGIIPVFGIVHYAQKFQGRVTITADKSTSTAYMELSSLRSEDTAAYYCARDRQQQPSPYYYHGMDVWGQGTTVTVSS
VL: DIRLTQSPSSLSASVGDRVTITCQASQDISNYLNWYQQKPGKAPKLLIYDASNLETGVPTRFSGSGSGTDFTFTISSLQPEDIATYYCQQYDNLPLFGGGTKVEIK
B10: A-19 (antibody, V domains shown)
VH: QVQLVQSGAEVKKPGESLKISCKGSGYSFTSYWIAWVRQMPGKGLEWMGIIYPGDSDTSYSPSFQGQVTISADKSISTAYLQWSSLKASDTAMYYCARGPNKYNWFDTWGQGTLVTVSS
VL: not shown
B11: A-3 (antibody, V domains shown)
VH: EVQLLESGPGLVKPSETLSLTCTVSGGSINSRSYYWGWIRQPPGKGLEWIGSIYYSGSTYYNPSLKSRVTISVDTSKNQFSLKLSSVIAADTAVYFCARLEQWELPGGWFDPWGQGTLVTVSS
VL: NFMLTQPHSVSESPGKTVTISCTRSSGSIASNYVQWYQQRPGSAPTTVIYEDNQRPSGVPDRFSGSIDISSNSASLTISGLKTEDEADYSCQSSDSSNVVFGGGTKLTVL
B12: A-1 (antibody, V domains shown)
VH: EVQLVESGGGVVQPGGSLRLSCAASGFAFSTYWMHWVRQAPGKGLVWVSRINGDGSGTNYADSVKGRFTISRDNAKSTLYLQMNSLRTEDTAVYYCTRTAGRGAYDFGRFDPWGQGTLVTVSS
VL: DIVLTQTPLSLPVTPGEPASISCRSSQSLLHSNGYNYLDWYLQKAGQSPQLLVFLGSNRASGVPDRFSGSASGTDFTLKISRVEAEDVGVYYCMQALQIPITFGQGTRLEIK
B13: A-12 (antibody, V domains shown)
VH: EVQLLESGGGLVQPGGSLRLSCAVSGLTVSSNYMSWVRQAPGKGLEWVSLIYSGGSTYYADSVKGRFTISRDNSKNTLYLQMNSLRAEDTAVYYCARGELGIPYGMDVWGQGTTVTVSS
VL: QSVLTQPPSVSAAPGQKVTISCSGGSSNVGDNFVSWYQQLPGTAPKLLIYDNNRRPSGIPDRFSGSKSGTSATLGITGLQTGDEADYYCGTWDSSLSAGVFGGGTKVTVL
B14: A-8 (antibody, V domains shown)
VH: EVQLLESGGGLVQPGGSLRLSCAASGFTFSSYAMSWVRQAPGKGLEWVSAISGSGNSTSYADSVKGRFTLSRDNSKNTLYLQMNSLRAEDTAIYYCAKGLGTRSFNWGAFDYWGQGTLVTVSS
VL: DIRVTQSPSSLSASVGDRVTITCRASQGISYSLAWYQQKPGKAPKLLLYAASNLESGVPSRFSGSGSGTDYTLTVSSLQPEDFATYYCQQYYSTPWTFGQGTKVEIK
B15: A-23 (antibody, V domains shown)
VH: EVQLVESGGGLVQPGRSLRLSCAASGFTFDDYAMHWVRQAPGKGLEWVSGISWNSGTIGYADSVKGRFIISRDNAKNSLYLQMNSLRGEDMALYYCGKDRKREDPSLGGMDVWGQGTTVTVSS
VL: SYVLTQPPSVSVAPGQTARITCGGNNIGSKSVHWYQQKPGQAPVLVVYDDTDRPSGIPERFSGSNSGNTATLTISRVEAGDEADYYCQVWDSSSDHYVFGTGTKVTVL
B16: A-23.3 (antibody, V domains shown)
VH: EVQLVESGGGLVQPGRSLRLSCAASGFTFDDYAMHWVRQAPGKGLEWVSGTSWNSGTIGYADSVKGRFIISRDNAKNSLYLQMNSLRGEDMALYYCVKDRKREDPSLGGMDVWGQGTTVTVSS
VL: SYVLTQPPSVSVAPGQTARITCGGNNIGSKSVHWYQQKPGQAPVLVVYDDTDRPSGIPERFSGSNSGNTATLTISRVEAGDEADYYCQVWDSSSDDYVFGTGTKVTVL
B17: A-23.2 (antibody, V domains shown)
VH: EVQLVESGGGLVQPGRSLRLSCAASGFTFDDYAMHWVRQAPGKGLEWVSGTSWNSGTIGYADSVKGRFIISRDNAKNSLYLQMNSLRGEDMALYYCVKDRKREDPSLGGMDVWGQGTTVTVSS
VL: SYVLTQPPSVSVAPGQTARITCGGNNIGSKSVHWYQQKPGQAPVLVVYDDTDRPSGIPERFSGSNSGNTATLTISRVEAGDEADYYCQVWDVSSDSYVFGTGTKVTVL
B18: A-23.1 (antibody, V domains shown)
VH: EVQLVESGGGLVQPGRSLRLSCAASGFTIDDYAMHWVRQAPGKGLEWVSGISWNGGTIGYADSVKGRFIISRDNAKNSLYLQMNSLRGEDMALYYCGKDRKREDPSLGGMDVWGQGTTVTVSS
VL: SYVLTQPPSVSVAPGQTARITCLGNNIGSKSVHWYQQKPGQAPVLVVYDDTDRPSGIPERFSGSNSGNTATLTISRVEAGDEADYYCQVWDSESDHYVFGTGTKVTVL
B19: A-20 (antibody, V domains shown)
VH: QVQLVESGGGVVQPGRSLRLSCAASGFTFSNFAMHWVRQAPGKGLEWVAVILYDGINKYYADSVKGRFTISRGNSKNTLSLQMNSLRAEDTAVYYCARAQNYYDRSGTLQLDAFDIWGQGTLVTVSS
VL: AIQMTQSPSSLSASVGDRVTITCRASQGIRNDLGWYQQKPGKAPKLLIYAASSLQSGVPSRFSGSGSGTDFTLTISSLQPEDFATYYCLQDYNYPLTFGGGTKVEIK
B20: A-20.1 (antibody, V domains shown)
VH: QVQLVESGGGVVQPGRSLRLSCAASGFTFSNFAMHWVRQAPGKGLEWVAVILYDGINKYYADSVKGRFTISRGNSKNTLSLQMNSLRAEDTAVYYCARAQNYYDRSGTLQLDAFDIWGQGTLVTVSS
VL: AIQMTQSPSSLSASVGDRVTITCVASQGIRNDLGWYQQKPGKAPKLLIYEASSLESGVPSRFSGSGSGTDFTLTISSLQPEDFATYYCLQDYNYPLTFGGGTKVEIK

The target of the first assay is SARS-CoV-2 RBD-mFc (SARS-CoV-2, UniProt P0DTC2 319-541). In words: Octet BLI, IgG, avid. For orientation: In BLI a coated tip is dipped into the sample, and binding shifts an interference pattern.
The Kd is the free concentration of one partner at which half of the binding sites on the other are occupied at equilibrium, for simple one-to-one binding. Take B1: the Kd turned out to be 0.125 nM.
The same measure, in the same setting: the figure for B2 is 0.158 nM; for B3 it is 0.0941 nM.
Same read-out and setting: for B4 the value was 0.179 nM; for B5, 0.0959 nM; for B6, 0.0931 nM.
On the same count and under the same terms, for B7 the value was 0.212 nM.
In turn, B8 had a Kd of 0.663 nM.
The molecule B9 showed a Kd of 0.173 nM.
Same read-out and setting: the figure for B10 is 0.129 nM; for B11 it is 0.141 nM; for B12 it is 0.089 nM.
B13 came in with a Kd of 0.151 nM.
Still for that read-out and setting: for B14 the value was 0.106 nM.

The next assay has as its target SARS-CoV-2 Variant B.1.17 N501Y S1-His (SARS-CoV-2, UniProt P0DTC2 16-685). In words: Octet BLI, IgG, monovalent.
As to B15, the affinity, expressed as Kd, was 1.2 nM.
B16: the Kd stood at 0.286 nM.
As for B17, binding was characterised by a dissociation constant (Kd) of 0.242 nM.
On the same count and under the same terms, the figure for B18 is 0.512 nM.
The same measure, in the same setting: for B19 the value was 2.57 nM.
B20 had a Kd of 0.604 nM.

(Values after patent publication US20260217797A1 (Takeda / Millennium, published 2026).)
